The values that follow come from patent US8785135B2, “Mutant G-protein coupled receptors and methods for selecting them” (Heptares Therapeutics Limited, priority 2007, dated 2014).

A word on the Kd: it is the equilibrium constant for the complex coming apart.

The target in data set [1] is βAR-m23 (Meleagris gallopavo, UniProt P07700, A282L/C116L/F327A/F338M/M90V/R68S/Y227A). Format: binding, turkey.
A short description of data set [2]: Thermostability assay of βAR34-424 and mutants (heat detergent-solubilised receptor 30 min, then [3H]-DHA binding). Particulars: heated 30 min without ligand; for Tm: turkey βAR expressed in E. coli, DDM-solubilised, [3H]-DHA binding, mean ± S.E. from duplicates.
Experimental: Binding assays were performed using [^3H]-dihydroalprenolol (DHA) as radioligand as described under “Methods”. Samples were heated for 30 minutes at different temperatures before the assay. […] Data points are from duplicates of one single experiment. This experiment has been repeated several times with similar results.
Expression of βAR and the mutants was performed in X10 cells (Stratagene). Cultures of 50 ml of 2×TY medium containing ampicillin (100 μg/ml) were grown at 37° C. with shaking until OD600=3 and then induced with 0.4 mM IPTG. Induced cultures were incubated at 25° C. for 4 h and then cells were harvested by centrifugation at 13,000×g for 1 min (aliquots of 2 ml) and stored at ±20° C. For the assays, cells were broken by freeze-thaw (five cycles), resuspended in 500 μl of buffer [20 mM Tris pH 8, 0.4 M NaCl, 1 mM EDTA and protease inhibitors (Complete™, Roche)]. After an incubation for 1 h at 4° C. with 100 μg/ml lysozyme and DNase I (Sigma), samples were solubilized with 2% DDM on ice for 30 minutes. Insoluble material was removed by centrifugation (15,000×g, 2 min, 4° C.) and the supernatant was used directly in radioligand binding assays.
Single point binding assays contained 20 mM Tris pH 8, 0.4 M NaCl, 1 mM EDTA, 0.1% DDM (or corresponding detergent) with 50 nM [^3H]-DHA and 20-100 μg membrane protein in a final volume of 120 μl; equilibration was for 1 h at 4° C. Thermostability was assessed by incubating the binding assay mix, with or without [^3H]-DHA at the specified temperature for 30 minutes; reactions were placed on ice and [^3H]-DHA added as necessary and equilibrated for a further hour. […] Radioactivity was counted on a Beckman LS6000 liquid scintillation counter and data were analyzed by nonlinear regression using Prism software (GraphPad).
The nature of data set [3]: Thermostability of A2aR and mutants (ligand binding after or during heating). Format: physicochemical. Particulars: for Tm +agonist / Tm +antagonist / Tm −agonist / Tm −antagonist: 1% DDM (no glycerol); for Tm +agonist: agonist-occupied state; for Tm +antagonist: antagonist-occupied state; for Tm −agonist / Tm −antagonist: apo-state; for Tm −agonist: agonist binding; for Tm −antagonist: antagonist binding; for Tm: ZM241385 bound; for thermostability measured with 3H-NECA (agonist): Ligand(−) format, binding after the heating step. In outline:
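Thermostability of wild-type and site-directed mutant A2aR assessed by agonist or antagonist binding either after heating (ligand(−) format) or during heating with ligand present (ligand(+) format); stability expressed as Tm.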

Data set [4] is described as follows: Stability of wild-type and mutant A2aR in different detergents. Details: key: It was not possible to determine the Tm for some receptor-detergent combinations, because the receptor was too unstable (†). The format is physicochemical.
A short description of data set [5]: Thermostability of β adrenergic receptors expressed in mammalian cells, minus-ligand format. Particulars: 0.1% dodecylmaltoside, apo-state heated, 3H-DHA added after.
Text: The resulting mutants were transiently expressed in mammalian cells, solubilised in 0.1% dodecylmaltoside and assayed for thermostability in the minus-ligand format (heating the apo-state, quenching on ice, adding 3H-DHA).
For data set [6], the target named is Rant 21 (Homo sapiens, UniProt P29274, A54L/K122A/T88A/V239A). Briefly: Competition assay against [3H]ZM241385, detergent-solubilised receptor. As to conditions: versus wild-type A2aR. Format: binding.

Positions count from the first letter of the chain named. In names and notes the source's numbering stands. Where two headings read alike, the source gives them in different places.

Sequence of βAR-m23 (P07700 34-424 R68S/M90V/C116L/Y227A/A282L/F327A/F338M): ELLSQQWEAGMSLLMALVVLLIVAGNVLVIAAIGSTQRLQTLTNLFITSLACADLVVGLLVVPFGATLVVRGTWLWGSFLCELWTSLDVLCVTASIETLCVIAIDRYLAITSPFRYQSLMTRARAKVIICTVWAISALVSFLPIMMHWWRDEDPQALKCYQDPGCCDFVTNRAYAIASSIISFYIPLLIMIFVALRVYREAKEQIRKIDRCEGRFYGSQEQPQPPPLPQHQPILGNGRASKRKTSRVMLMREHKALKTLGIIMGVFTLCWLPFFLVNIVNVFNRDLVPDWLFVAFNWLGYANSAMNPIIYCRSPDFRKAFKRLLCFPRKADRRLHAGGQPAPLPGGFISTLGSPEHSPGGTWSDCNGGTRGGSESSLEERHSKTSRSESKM

In the case of “1-[4,6-propyl-^3H]-dihydroalprenolol [[^3H]-dihydroalprenolol]”, the Kd in data set [1] (membranes, n=2) was 6.5 ± 0.2 nM; in data set [1] (semipurified receptor) it was 12.5 nM.
In the case of M90A: βAR34-424 point mutant, in data set [2] (DDM), the “increase in Tm compared to βAR34-424” value was determined as 8 °C.
On to “Wildtype A2aR: human adenosine A2a receptor, parent”, for which the “Tm +agonist” value in data set [3] is 29 °C. The “Tm +antagonist” value in data set [3] turned out to be 32 °C. Moreover, the “Tm −agonist” value in data set [3] amounted to 21 °C. Moreover, in data set [3], the “Tm −antagonist” value is 31 °C. Further, in data set [3], the Tm was determined as 31 °C. The “Tm Agonist-binding” value was 28 °C in data set [4] (0.003% LDAO); 37 °C in data set [4] (0.006% FC12); 27 °C in data set [4] (0.01% DDM); 23 °C in data set [4] (0.1% DM); “†” in data set [4] (0.3% NG); 22 °C in data set [4] (0.3% NM). The “Tm Agonist-binding” value in data set [4] (0.6% OG) is <9 °C. The “Tm Antagonist-binding” value in data set [4] (0.003% LDAO) is 32 °C; in data set [4] (0.006% FC12) it was 43 °C; in data set [4] (0.01% DDM) it was 25 °C; in data set [4] (0.1% DM), 10 °C; in data set [4] (0.3% NG), “†”; in data set [4] (0.3% NM), <4 °C. For the same molecule, the “Tm Antagonist-binding” value in data set [4] (0.6% OG) was “†”.
Consider human β1: human β1 adrenergic receptor, for which the “apparent Tm” value in data set [5] was ~12 °C.
Take “m6-4: βAR34-424 mutant R68S, Y227A, A234L, A282L”: in data set [2], the Tm is 41.6 ± 0.1 °C.
Take “m6-5: βAR34-424 mutant R68S, A234L, A282L, A334L”: the Tm in data set [2] was found to be 41.9 ± 0.5 °C.
On the same count and under the same terms, the figure for “m6-9: βAR34-424 mutant R68S, Y227A, A234L, A282L, A334L” is 43.7 ± 0.4 °C; for “m6-10: βAR34-424 mutant R68S, Y227A, A282L, A334L” it is 47.4 ± 1.1 °C.
Still for that read-out and setting: next, “m7-1: βAR34-424 mutant M90V, A282L, F338M”: 43.0 ± 0.8 °C; “m7-7: βAR34-424 mutant M90V, Y227A, F338M”: 45.2 ± 2.0 °C.
Take “m10-4: βAR34-424 mutant R68S, M90V, V230A, A334L”: in data set [2], the Tm came to 46.9 ± 1.0 °C.
On the same count and under the same terms, next, “m20: βAR34-424 mutant R68S, M90V, F327A, A334L”: 48.4 ± 0.7 °C.
Turning to “turkey β1: turkey β1 adrenergic receptor transiently expressed in mammalian cells”, the “apparent Tm” value in data set [5] was determined as 23 °C.

B1: Rant 21: A2aR mutant A54L, T88A, V239A+K122A (protein, UniProt P29274 1-412, looked up, variant A54L T88A V239A K122A)
Adenosine receptor A2a: MPIMGSSVYITVELAIAVLAILGNVLVCWAVWLNSNLQNVTNYFVVSLAAADILVGVLAIPFAITISTGFCAACHGCLFIACFVLVLAQSSIFSLLAIAIDRYIAIRIPLRYNGLVTGTRAAGIIAICWVLSFAIGLTPMLGWNNCGQPKEGKNHSQGCGEGQVACLFEDVVPMNYMVYFNFFACVLVPLLLMLGVYLRIFLAARRQLKQMESQPLPGERARSTLQKEVHAAKSLAIIAGLFALCWLPLHIINCFTFFCPDCSHAPLWLMYLAIVLSHTNSVVNPFIYAYRIREFRQTFRKIIRSHVLRQQEPFKAAGTSARVLAAHGSDGEQVSLRLNGHPPGVWANGSAPHPERRPNGYALGLVSGGSAQESQGNTGLPDVELLSHELKGVCPEPPGLDDPLAQDGAGVS
On to B1, for which the “Tm +antagonist” value in data set [3] came out at 49 °C. The “Tm −antagonist” value in data set [3] came out at 41 °C. Moreover, in data set [3], the Tm turned out to be 49 °C. Besides, in data set [6], the “agonist binding weaker than parent” value is 2-4 orders of magnitude. For the same molecule, the “Tm Antagonist-binding” value in data set [4] (0.003% LDAO) was 42 °C; in data set [4] (0.006% FC12), 49 °C; in data set [4] (0.01% DDM), 39 °C; in data set [4] (0.1% DM), 28 °C; in data set [4] (0.3% NG) it was 22 °C; in data set [4] (0.3% NM), 25 °C. Besides, in data set [4] (0.6% OG), the “Tm Antagonist-binding” value stood at 23 °C.

B2: L167A: A2aR point mutant (protein, UniProt P29274 1-412, looked up, variant L167A)
Adenosine receptor A2a: B1 Adenosine receptor A2a with L54A, A88T, A122K, L167A, A239V
As for B2, the “thermostability measured with 3H-NECA (agonist)” value (from here on “thermostability measured”) in data set [3] is on record as “improved thermostability”.

B3: R199A: A2aR point mutant (protein, UniProt P29274 1-412, looked up, variant R199A)
Adenosine receptor A2a: B1 Adenosine receptor A2a with L54A, A88T, A122K, R199A, A239V
For B3, the “thermostability measured” value in data set [3] is reported as “improved thermostability”.

B4: A184L: A2aR point mutant (protein, UniProt P29274 1-412, looked up, variant A184L)
Adenosine receptor A2a: B1 Adenosine receptor A2a with L54A, A88T, A122K, A184L, A239V
With B4, in data set [3], the “thermostability measured” value is recorded as “improved thermostability”.

B5: Rant 5: A2aR mutant A54L/T88A/V239A (protein, UniProt P29274 1-412, looked up, variant A54L T88A V239A)
Adenosine receptor A2a: B1 Adenosine receptor A2a with A122K
For B5, in data set [3], the “Tm +antagonist” value was determined as 46 °C and the “Tm −antagonist” value is 42 °C.

B6: Rag 1: A2aR mutant A184L/R199A/L272A (protein, UniProt P29274 1-412, looked up, variant A184L R199A L272A)
Adenosine receptor A2a: B1 Adenosine receptor A2a with L54A, A88T, A122K, A184L, R199A, A239V, L272A
Regarding B6, in data set [3], the “Tm +agonist” value stood at 34 °C and the “Tm −agonist” value came to 26 °C.
